Reference: US20230405078

Target: T1, elafin (AS-61641, Anaspec)
T1 chain: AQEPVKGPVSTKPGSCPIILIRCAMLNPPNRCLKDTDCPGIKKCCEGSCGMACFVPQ

B1: recombinant cathepsin S (1183-CY-010, R&D Systems) (protein)
chain: QLHKDPTLDHHWHLWKKTYGKQYKEKNEEAVRRLIWEKNLKFVMLHNLEHSMGMHSYDLGMNHLGDMTSEEVMSLMSSLRVPSQWQRNITYKSNPNRILPDSVDWREKGCVTEVKYQGSCGACWAFSAVGALEAQLKLKTGKLVSLSAQNLVDCSTEKYGNKGCNGGFMTTAFQYIIDNKGIDSDASYPYKAMDQKCQYDSKYRAATCSKYTELPYGREDVLKEAVANKGPVSVGVDARHPSFFLYRSGVYYEPSCTQNVNHGVLVVGYGDLNGKEYWLVKNSWGHNFGEEGYIRMARNKGNHCGIASFPSYPEI
  ERK1/2 phosphorylation and ProCOL1A2 expression in colonic fibroblasts: reversed elafin-mediated inhibition of ERK1/2 phosphorylation and ProCOL1A2 expression in colonic fibroblasts
